Measured values as given in PMC5681435 (2017).

B1: untagged p16INK4a [not stated] / GSTCDK4 [human] (parent complex)
chain 1: MEPAAGSSMEPSADWLATAAARGRVEEVRALLEAGALPNAPNSYGRRPIQVMMMGSARVAELLLLHGAEPNCADPATLTRPVHDAAREGFLDTLVVLHRAGARLDVRDAWGRLPVDLAEELGHRDVARYLRAAAGGTRGSNHARIDAAEGPSDIPD
chain 2: MATSRYEPVAEIGVGAYGTVYKARDPHSGHFVALKSVRVPNGGGGGGGLPISTVREVALLRRLEAFEHPNVVRLMDVCATSRTDREIKVTLVFEHVDQDLRTYLDKAPPPGLPAETIKDLMRQFLRGLDFLHANCIVHRDLKPENILVTSGGTVKLADFGLARIYSYQMALTPVVVTLWYRAPEVLLQSTYATPVDMWSVGCIFAEMFRRKPLFCGNSEADQLGKIFDLIGLPPEDDWPRDVSLPRGAFPPRGPRPVQSVVPEMEESGAQLLLEMLTFNPHKRISAFRALQHSYLHKDEGNPE

Variants of: B1
Experiment: HTRF displacement assay; CDK4 8 nM; value read at the highest [INK] point, about 500 nM; read off a plot

Q: How did the response turn out when chain 1 D84N was run?
A: ~58 % Inhibition
